Experimental data as given in patent US8030017B2, “Thermostable luciferases and methods of production” (Promega Corporation, priority 1997, dated 2011).
Substitutions are numbered along the chain they refer to.

B1: Luc49-7C6: mutant luciferase, SEQ ID NO:14 (protein)
chain: MADKNILYGPEPFYPLADGTAGEQMFYALSRYADISGCIALTNAHTKENVLYEEFLKLSCRLAESFKKYGLKQNDTIAVCSENGLQFFLPIIASLYLGIIAAPVSDKYIERELIHSLGIVKPRIIFCSKNTFQKVLNVKSKLKYVETIIILDLNEDLGGYQCLNNFISQNSDINLDVKKFKPYSFNRDDQVALVMFSSGTTGVSKGVMLTHKNIVARFSLAKDPTFGNAINPTTAILTVIPFHHGFGMMTTLGYFTCGFRVVLMHTFEEKLFLQSLQDYKVESTLLVPTLMAFLAKSALVEKYDLSHLKEIASGGAPLSKEIGEMVKKRFKLNFVRQGYGLTETTSAVLITPNNDVRPGSTGKIVPFHAVKVVDPTTGKILGPNEPGELYFKGDMIMKGYYNNEEATKAIINKDGWLRSGDIAYYDNDGHFYIVDRLKSLIKYKGYQVAPAEIEGILLQHPYIVDAGVTGIPDEAAGELPAAGVVVQTGKYLNEQIVQNFVSSQVSTAKWLRGGVKFLDEIPKGSTGKIDRKVLRQMFEKHTNG
modifications: Mutant luciferase
B2: 49-7a5: mutant luciferase, SEQ ID NO:17 (protein)
chain: B1 chain with A2E, L220I, P386T
modifications: Mutant luciferase
B3: Luc78-0B10: mutant luciferase, SEQ ID NO:19 (protein)
chain: MADKNILYGPEPFYPLADGTAGEQMFDALSRYADISGCIALTNAHTKENVLYEEFLKLSCRLAESFKKYGLKQNDTIAVCSENGLQFFLPVIASLYLGIIAAPVSDKYIERELIHSLGIVKPRIIFCSKNTFQKVLNVKSKLKSVETIIILDLNEDLGGYQCLNNFISQNSDSNLDVKKFKPYSFNRDDQVALVMFSSGTTGVPKGVMLTHKNIVARFSLAKDPTFGNAINPTTAILTVIPFHHGFGMMTTLGYFTCGFRVVLMHTFEEKLFLQSLQDYKVESTLLVPTLMAFLAKSALVEKYDLSHLKEIASGGAPLSKEIGEMVKKRFKLNFVRQGYGLTETTSAVLITPKGDARPGSTGKIVPFHAVKVVDPTTGKILGPNEPGELYFKGAMIMKGYYNNEEATKAIIDNDGWLRSGDIAYYDNDGHFYIVDRLKSLIKYKGYQVAPAEIEGILLQHPYIVDAGVTGIPDEAAGELPAAGVVVQTGKYLNEQIVQDFVSSQVSTAKWLRGGVKFLDEIPKGSTGKIDRKVLRQMFEKHTNG
modifications: Mutant luciferase

How the values were obtained:
[1] = Robotic quantitative screen of E. coli lysates: luminescence activity (Li), expression/specific activity; type: biochemical; details: relative value
Experimental: A plate containing cells is retrieved from the carousel and placed on the shaker for 3-5 minutes to fully mix the cells. The cells tend to settle from solution upon standing.
To measure Optical Density (O.D.), the plate is moved from the shaker to the locator near the luminometer; the lid is removed and the plate placed into the luminometer. The O.D. is measured using a 620 nm filter.
To prepare a cell lysate, the plate of cells is first retrieved from the refrigerator and mixed on the shaker to resuspend the cells. A new plate from the carousel without a lid is placed in the reagent dispenser and 20 μl of Buffer A is added to each well. This is placed in the pipetting station.
The plate is then moved to the reagent dispenser to add 175 μl of Buffer B, and then mixed on the shaker for about 15 minutes or more. The combination of the freeze/thaw and Buffer B will cause the cells to lyse.
(§1) One daughter plate is placed in the luminometer and the 1X assay method is used. After the assay, the plate is placed in the ambient incubator, and the second daughter plate is placed in the luminometer. For the second plate, the 0.02X assay method is used. This plate is discarded, and the first plate is returned from the incubator to the luminometer. The repeat assay method is used (i.e., no reagent is injected). Afterwards, the plate is again returned to the ambient incubator.
1X Assay reagent: 5 μM Luciferin; 175 μM ATP; 20 mM Tricine, pH 8.0; 0.1 mM EDTA
(§2) The following criteria were used for screening purposes. The temperature chosen for the enzyme stability parameter was such that the parent enzyme would decay 100 to 1000 fold over 10 hours (see Table 1). Criteria 1 is achieved manually; data for criteria 2-6 is generated by robotic analysis. For all criteria, the maximum value as described is selected. • 1. In vivo screen. The brightest clones are selected at a given temperature. • 2. Expression/specific activity. The value for normalized luminescence is calculated as the ratio of luminescence to optical density. The value is reported as the ratio with the reference value. • 3. Enzyme stability. Measurements of normalized luminescence of the incubated samples (3 taken over about 15 hours) are fitted to In(L)=In(L0)−(t/τ), where L is normalized luminescence and t is time. τ is a measure of the enzyme stability. The value is reported as the ratio with the reference value, and the correlation coefficients are calculated. • 4. Substrate binding. Measurements of normalized luminescence with 1X and 0.02X are taken at the initial reading set, and 1X and 0.06X are taken at the 5 hour set. The ratio of the 0.02X:1X and 0.06X:1X gives the relative luminescence at 0.02X and 0.06X concentrations. These values, along with the relative luminescence at 1X (i.e., 1), are fitted to a Lineweaver-Burk plot to yield the Km:app,total for the substrates ATP, luciferin, and CoA. The values are reported as the inverse ratio with the reference value, and the correlation coefficients are calculated. • 5. Signal stability. The luminescence of the initial IX luminescent reactions are re-measured 3 additional times over about 15 hours. These values are fitted to In(L)=In(L0)−(t/τ) and the integral over t (15 hours) is calculated. Signal stability is then calculated as S=(1−int(L)/L0t)^2. The values are reported as the inverse ratio with the reference value, and the correlation coefficients are calculated. • 6. Composite fitness. The values of criteria 2 through 5 are combined into a single composite value of fitness (or commercial utility). This value is based on a judgment of the relative importance of the other criteria. This judgment is given below:
Normalize luminescence data: For each measurement of luminescence in the eight daughter plates, the normalized luminescence is calculated by dividing the relative light units by the optical density of the original plate. […]

[2] = Robotic quantitative screen of E. coli lysates: enzyme stability (tau) at elevated temperature; type: physicochemical; details: relative value
Experimental: Two white assay plates (Labsystems #9502887) are obtained from the plate feeder and placed in the pipetter. The incubation plate from the shaker is placed in the pipetter, and the lid removed and placed on the nearby locator. Two daughter plates are made using the pipetting procedure (see “Create Pair of Daughter Plates from Incubation Plate”). Afterwards, the lid is replaced on the parent plate, and the plate is placed in a high temperature incubator. [ranging from 31° C. to about 65° C. depending on the clone.]
To begin the second set of measurements, the plate from the high temperature incubator is placed in the shaker to mix.
In the final set of measurements, the plate from the high temperature incubator is again placed in the shaker to mix.
as §2
Calculate enzyme stability (τ): For each sample, use linear regression to fit In(L1x)=In(L0)−(t/τ) using the three luminescence measurements with 1X substrate concentrations (Plates 1, 5, 8). Also calculate the regression coefficient.
Calculate the reference-normalized values: For the criteria parameter of each sample, a reference-normalized value is determined by calculating the ratio or inverse ratio with the respective reference value. The reference-normalized values are Li/Lir, τ/τr, Kmr/Km:app,total, and Sr/S, where reference values are calculated from the equations of the appropriate reference surface.
“Enzyme stability” was determined by the rate of activity loss from cell lysates over 10 hours. In successive rounds of evolution the incubation temperature of the lysates was increased.
Robotic Automation: Robotic automation was used in the quantitative screens to accurately perform the large number of required quantitative assays on the cultured cells. […]

[3] = Robotic quantitative screen of E. coli lysates: signal stability (S), sustained enzymatic turnover; type: biochemical; details: inverse ratio with reference
Experimental: as §1
The plate in the ambient incubator is returned to the luminometer and the repeat assay method is again used. The plate is returned afterwards to the ambient incubator.
The plate in the ambient incubator is returned to the luminometer and the repeat assay method is again used. The plate is discarded afterwards.
as §2
Calculate signal stability (S): For each sample, use linear regression to fit In(L)=In(L0)[…] using the four luminescence measurements of the initial microplate with 1X substrate concentrations (Plates 1, 3, 4, and 7). Also calculate the regression coefficient. From the calculated values of T and L0, calculate the integral of luminescence by int(L)=τL0(1−exp(−tf/τ)), where tf is the average time of the last measurement (e.g., 15 hours). The signal stability is calculated as S=(1−int(L)/Litf)^2, where Li is the initial measurement of normalized luminescence with 1× substrate concentration (Plate 1).
[Note: To correct for evaporation, an equation S=(1+K−int(L)/Litf)^2, may be used where 1/K=2(relative change of liquid volume at tf).]
Calculate the reference-normalized values: For the criteria parameter of each sample, a reference-normalized value is determined by calculating the ratio or inverse ratio with the respective reference value. […]

[4] = Thermostability (half-life, retained activity) of luciferases incubated in aqueous solution at different temperatures; type: physicochemical; details: for thermostability compared with parent enzyme: 4° C., times of less than 15 days (FIG. 49); for half-life: 22° C. (FIGS. 9, 10); for Thermostability Of Luciferase Activity (Half-Life In Hours): purified enzyme
Text: As defined herein, a “thermostable” enzyme, e.g., a luciferase, or an enzyme which has “thermostability”, is an enzyme which under certain conditions, e.g., at certain temperature, in aqueous solution and/or for certain periods of time, has an increased retention of activity relative to a reference enzyme. For example, for a thermostable luciferase, a reference luciferase may be native wild-type luciferase or recombinant wild-type luciferase. Preferably, for beetle luciferases, the activity is luminescence under conditions of saturation with luciferin and ATP. One measure of thermostability of an enzyme is the half-life of the enzyme in an aqueous solution (the time over which 50% of the activity is lost) at a stated temperature.
(§3) Protein purification: Four mutants that are described herein (Luc[T249M], Luc49-7C6, Luc78-0B10, and Luc90-1B5) were purified using a previously published procedure (Hastings et al., 1996).
[…] Enzyme stability was determined from diluted proteins incubated at different temperatures, and aliquots were removed at different time points. A linear regression of the natural log of the luminescence and time was calculated. Half-life was calculated as the 1n(0.5)/slope of the regression.

[5] = Michaelis-Menten constant for luciferin of purified mutants; type: biochemical; details: purified enzyme
Text: (§4) Substrate binding was screened by measuring an apparent composite Km (see Example 2) for luciferin and ATP. […] The Km for luciferin rose while the Km for ATP declined (Table 3). The reason for this change is unknown, although it can be speculated that more efficient release of oxyluciferin or luciferin inhibitors could lead to more rapid enzyme turnover.
as §3

[6] = Michaelis-Menten constant for ATP of purified mutants; type: biochemical; details: purified enzyme
Text: as §4, §3

[7] = Control is Luc46-2H3 at 54° C. (=1)
[8] = Room Temperature (about 25° C.)
[9] = Control is Luc71-5D4 at 60° C. (=1)

| Km [5] [µM] | Molecule | Luminescence (Li) [1, 7] | Enzyme stability (tau) [2, 7] | Signal stability (S) [3, 7] | thermostability compared with parent enzyme [4] | half-life [4] [days] | Thermostability Of Luciferase Activity (Half-Life In Hours) ([4]; 37° C.) [h] | half-life calculated from regression of log luminescence ([4]; 50° C. (FIG. 7)) [hours] | Thermostability Of Luciferase Activity (Half-Life In Hours) ([4]; 50° C.) [h] | half-life calculated from regression of log luminescence ([4]; 60° C. (FIGS. 6, 8)) [hours] | Thermostability Of Luciferase Activity (Half-Life In Hours) ([4]; 60° C.) [h] | Thermostability Of Luciferase Activity (Half-Life In Hours) [4, 8] [h] | Km [6] [µM] | Luminescence (Li) [1, 9] | Enzyme stability (tau) [2, 9] | Signal stability (S) [3, 9] | half life calculated from regression of log luminescence ([4]; FIG. 5, temperature not given) [hours] |
| --- | --- | --- | --- | --- | --- | --- | --- | --- | --- | --- | --- | --- | --- | --- | --- | --- | --- |
| 0.99 | B1 | 1.12 | 1.9 | 1.01 | not distinguishable from the parent enzyme | 64 | 68 | 100.5 | 31 | 2.9 | 6.3 | 430 | 14 |  |  |  |  |
|  | B2 | 1.08 | 1.44 | 0.99 |  |  |  |  |  |  |  |  |  |  |  |  |  |
| 1.6 | B3 |  |  |  | not distinguishable from the parent enzyme | 109 | 220 |  | 47 | 38 | 15 | 3000 | 3.4 | 1.93 | 2 | 0.9926 | 144 |
